We go through one molecule from patent US20160340422A1 (published 2016).

For one experiment, the target named is T1, Mouse IL-17A (mouse, UniProt Q62386 26-158).
T1 chain: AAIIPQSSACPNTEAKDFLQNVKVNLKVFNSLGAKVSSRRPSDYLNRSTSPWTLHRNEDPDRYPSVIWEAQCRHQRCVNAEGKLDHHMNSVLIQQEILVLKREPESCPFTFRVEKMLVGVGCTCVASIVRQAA
The experiment is described as follows: ELISA. (An ELISA detects its analyte on a solid surface through an enzyme-linked reagent.)

In a further experiment the target is Human IL-17A (human, UniProt Q16552 24-155). Description: ELISA.

What is called EC50 is the concentration that produces a half-maximal response. A low value points to an effect from little substance.

Chain of Human IL-17A (Q16552 24-155): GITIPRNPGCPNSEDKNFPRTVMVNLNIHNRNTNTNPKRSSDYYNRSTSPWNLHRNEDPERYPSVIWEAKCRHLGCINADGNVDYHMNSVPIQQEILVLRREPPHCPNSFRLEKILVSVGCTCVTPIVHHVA

B1: Control antibody A (antibody, V domains shown)
VH: QVQLKESGPGLVQPSQTLSLTCTVSGFSLTNYYVHWVRQPPGKGLEWMGGVWNDGDTSYNSVLRSRLSITRDTSKSQVLLKMSSLQTEDTATYYCAREGREGFVGYYVMDAWGPGASVTVSS
VL: DIQMTQSPSFLSASVGERVTLSCKASQNINKYLDWFQQKLGEAPKLLIYNADNLHTGIPSRFSGSGSFSDFILTISSLQPEDDATYFCLQRESWPYTFGAGTKLELKR
For B1, the EC50 with Mouse IL-17A and with Human IL-17A was 0.088 nM throughout.
